The results in this text go back to publication PMC4192513 (2014).

Experiment [1] addresses T1, Snu17p (residues 1-113) (S. cerevisiae, UniProt P40565 1-113).
T1 chain: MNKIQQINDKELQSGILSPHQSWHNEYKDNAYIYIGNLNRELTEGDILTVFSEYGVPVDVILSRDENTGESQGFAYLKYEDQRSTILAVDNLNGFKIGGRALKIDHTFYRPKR
The experiment is described as follows: ITC. A general note: ITC needs no label: the signal is the heat of the interaction.

Experiment [2] concerns the target T1, Snu17p (residues 1-113). Put plainly: ITC; first site (KD1).
The target in experiment [3] is T1, Snu17p (residues 1-113). The experiment is described as follows: ITC; second site (KD2).

B1: Bud13p peptide (residues 225-238) (peptide)
peptide: AIMPGSRWDGVHRS
In general, Kd refers to the concentration at which binding is half-saturated. A higher Kd goes with a looser complex. For B1, the Kd in the experiment with Snu17p (residues 1-113) [1] was roughly 60 µM.

B2: Bud13p (residues 201-266) (domain or fragment)
chain: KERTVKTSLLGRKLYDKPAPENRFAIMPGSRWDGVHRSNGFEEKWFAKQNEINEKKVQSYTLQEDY
With B2, the Kd with Snu17p (residues 1-113) [2] was 6.3 nM; in the experiment with Snu17p (residues 1-113) [3], 234 nM.

B3: Bud13p peptide (residues 221-242) (peptide)
peptide: ENRFAIMPGSRWDGVHRSNGFE
In the experiment with Snu17p (residues 1-113) [1], B3 gave a Kd of 0.253 µM.
